In patent publication US20240150417A1:

Molecular target: human transferrin receptor (human) (UniProt P02786)
Assay: MST (Monolith NT.115), dye-labelled protein, receptor titrated

Chain of human transferrin receptor (human) (P02786 89-760 limits assumed): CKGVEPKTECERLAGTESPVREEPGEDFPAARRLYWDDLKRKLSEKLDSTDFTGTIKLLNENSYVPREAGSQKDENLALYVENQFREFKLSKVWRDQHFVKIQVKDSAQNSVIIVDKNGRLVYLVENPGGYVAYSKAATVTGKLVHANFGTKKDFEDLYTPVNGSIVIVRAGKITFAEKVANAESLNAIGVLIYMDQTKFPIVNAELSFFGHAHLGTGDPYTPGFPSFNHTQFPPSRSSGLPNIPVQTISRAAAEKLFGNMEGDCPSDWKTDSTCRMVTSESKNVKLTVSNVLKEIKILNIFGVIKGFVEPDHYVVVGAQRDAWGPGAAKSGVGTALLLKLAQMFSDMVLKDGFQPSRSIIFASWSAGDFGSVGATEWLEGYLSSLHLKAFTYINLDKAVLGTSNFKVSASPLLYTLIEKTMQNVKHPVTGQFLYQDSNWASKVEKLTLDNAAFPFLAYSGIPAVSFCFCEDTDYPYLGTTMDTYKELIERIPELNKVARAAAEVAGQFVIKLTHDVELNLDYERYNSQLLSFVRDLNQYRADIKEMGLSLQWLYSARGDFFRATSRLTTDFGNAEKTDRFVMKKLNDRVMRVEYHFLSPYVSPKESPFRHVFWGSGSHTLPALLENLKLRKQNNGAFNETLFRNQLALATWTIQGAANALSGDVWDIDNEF

Substance	Kd [nM]
AB-AH1-huHF (from UniProt P02794 1-183)	10.9
AB-gp100-huHF (from UniProt P02794 1-183)	29.7
BC-AH1-huHF (from UniProt P02794 1-183)	107
CD-AH1-huHF (from UniProt P02794 1-183)	3.45
CD-gp100-huHF (from UniProt P02794 1-183)	4.89
DE-AH1-huHF (from UniProt P02794 1-183)	6.11
